The target in this assay is Dob3, ferritin-like diiron oxidase/oxygenase (FDO) of the dob gene cluster (Nocardia ninae). As to the kind of experiment: SEC; size-exclusion chromatography of purified Dob3; column and buffer not told in the text shown (Supplementary Figure 19).

The text below walks through data of publication doi:10.1101/2025.05.24.655970.

A word on the stoichiometry N: it is the number of molecules, sites or subunits per partner or assembly.

“Dob3, ferritin-like diiron oxidase/oxygenase (FDO) of the dob gene cluster (enzyme)” registered a stoichiometry N of 2.
